Earlier results on 1 substance are cited in publication PMC6263114.

In this data set the target is transferrin receptor (TfR) (Homo sapiens) (UniProt P02786).
Chain of transferrin receptor (TfR) (Homo sapiens) (P02786 89-760): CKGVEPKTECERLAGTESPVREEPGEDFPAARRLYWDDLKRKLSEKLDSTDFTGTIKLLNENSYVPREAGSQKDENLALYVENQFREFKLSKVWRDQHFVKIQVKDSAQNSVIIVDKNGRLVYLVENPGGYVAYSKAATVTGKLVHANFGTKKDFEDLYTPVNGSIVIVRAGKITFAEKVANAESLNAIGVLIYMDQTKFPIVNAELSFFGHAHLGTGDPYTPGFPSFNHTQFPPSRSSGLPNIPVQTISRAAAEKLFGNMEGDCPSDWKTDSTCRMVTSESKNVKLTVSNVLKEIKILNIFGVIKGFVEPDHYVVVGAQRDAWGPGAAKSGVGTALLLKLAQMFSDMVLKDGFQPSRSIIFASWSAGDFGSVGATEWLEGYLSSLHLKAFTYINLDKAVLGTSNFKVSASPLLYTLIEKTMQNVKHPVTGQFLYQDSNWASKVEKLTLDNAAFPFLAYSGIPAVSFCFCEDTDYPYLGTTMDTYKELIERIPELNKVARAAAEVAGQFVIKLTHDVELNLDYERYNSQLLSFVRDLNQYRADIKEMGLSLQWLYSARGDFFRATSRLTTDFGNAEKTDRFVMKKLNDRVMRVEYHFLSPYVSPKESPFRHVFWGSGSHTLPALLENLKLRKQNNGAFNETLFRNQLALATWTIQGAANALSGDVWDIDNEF

With T7 peptide, the Kd (commonly the concentration at which binding is half-saturated) was 10 nM.
